# Results: the nanobody polyreactivity screen of Harvey et al. (2022)
# Test: yeast display, Sf9 membrane polyspecificity reagent, FACS + sequencing; frameworks hold sequencing errors
# Procedure, shortened: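 After 36–48 hours of galactose induction, yeast (Saccharomyces cerevisiae BJ5465) displaying a synthetic nanobody library were stained at 4 °C for 1 hour with 10% biotinylated, detergent-solubilized Sf9 membrane reagent. Streptavidin microbeads enriched the stained cells before FACS sorting into low and high (top ~1%) gates on anti-HA and streptavidin fluorescence. Each clone's polyreactivity label reflects its gate of origin.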
row,Sequence,polyreactivity (PSR sort gate)
1,QVQLVESGGGLVQAGGSLRLSCAASGSIFEGYGMGWYRQAPGKERELVASISTGDSTKYADSVKGRFTISRDNAKNTVYLQMNSLKPEDTAVYYCNAPYFYLPHKYDYWGQGTQVTVSS,low polyreactivity
2,QVQLVESGGGLVQAGGSLRLSCAASGSIFELNAMGWSRQAPGKERELVAAITSSGSSTYYADSVKGRFTISRDNAKNTVYLQMNSLKPEDTAVYYCARDAFEPYDVGEYYYWGQGTQVTVSS,low polyreactivity
3,QVQLVESGGGLVQAGGSLRLSCAASGSIFELNAMGWYRQAPGKEMELVAAIRWRTGRTYYADSVKGRFTISRDNAKNTVYLLMNSLKPEDTAVYYCNADVTSLTRVHGRFIVSDYDYWGQGTQVTVSS,low polyreactivity
4,QVQLVESGGGLVQAGGSLRLSCAASGSIFEQNAMGWYRQAPGKERELVAGINEGGGSTYYADSVKGRFTISRDNAKNTVYLQMNSLKPEDTAVYYCAATLGSRWAIYDYWGQGTQVTVSS,high polyreactivity
5,QVQLVESGGGLVQAGGSLRLSCAASGSIFEQYAMGWYRKAPGKERELVAAISSGGSTNYADSVKGRFTISRDNAKNTVYLQMNSLKPEDTAVYYCAAAYYTVGWLYYDYWYPFAYYYWGQGTQVTVSS,low polyreactivity
6,QVQLVESGGGLVQAGGSLRLSCAASGSIFEQYPMGWYRQAPGKERELVAAISRRSGRTYYADSVKGRFTISRDNAKHTVYLQMHSLIPEDTAVYYCAASGIYFVQYNSWGQGTHVTVSS,high polyreactivity
7,QVQLVESGGGLVQAGGSLRLSCAASGSIFERYAMGWYRQAPGKERELVAAISWRGGSTYYADSVKGRFTISRDNAKNTVYLQMNSLKPEDTAVYYCAAGARYVKQGYGYWGQGTQVTVSS,high polyreactivity
8,QVQLVESGGGLVQAGGSLRLSCAASGSIFESNAMGWYRPAPGKEREFVAAIDQNDGSTNYADSVKGRFTISRDHAKNTVYLQMNSLKPEDTAVYYCAKYWGYLGYYEFDYWGQGTQVTVSS,low polyreactivity
9,QVQLVESGGGLVQAGGSLRLSCAASGSIFESYAMGWYRQAPGKERELVASISGGGSTYYADSVKGRFTISRDNAKNTVYLQMNSLKPEDTAGYYCATVYVRYRQSRLIRYGYWGQGTQVTVSS,high polyreactivity
10,QVQLVESGGGLVQAGGSLRLSCAASGSIFESYARGWYRHSPGKERELVADITYHGGITYYADSVKGRFTISRDNAKNNFYLQMNSLKPEDTSVYYCAAESEKWYNYVLSYDWEYDYWGQGTQVTVSS,low polyreactivity
11,QVQLVESGGGLVQAGGSLRLSCAASGSIFESYVMGWSRPAPGTEREMVAAISSGGSTYYADSVKGRFTISRDNAKNTVYLQMNSLKPEDTAVYYCAANYDGGYLDYEAGYRLEYDYWGQGTQVTVSS,low polyreactivity
12,QVQLVESGGGLVQAGGSLRLSCAASGSIFESYVMGWYRQAPGKERELVAAISSGGSTYYADSVKGRFTISRDNAKNTVYLQMNSLKPEDTAVYYCNTEVVRFKYDYWGQGTQVTVSS,low polyreactivity
13,QVQLVESGGGLVQAGGSLRLSCAASGSIFEVNAMGWYRQAPGKERELVAAISCSGGSTYYADSVKGRFTISRDNAKNTVYLQMNSLKPEDTAVYYCAARPAGYSGRKLYYWGQGTQVTVSS,low polyreactivity
14,QVQLVESGGGLVQAGGSLRLSCAASGSIFEVNAMGWYRQAPGKERELVAAISFSGDSTYYADSVKGRFTISRDNAKNTVYLQMNSLKPEDTAVYYCAAEQYVAWIDYLYDYWGQGTQVTVSS,high polyreactivity
15,QVQLVESGGGLVQAGGSLRLSCAASGSIFEVYAMGWYRQAPGKERELVAAINYTGGSTYYADSVKGRFTISRDNAKNTVYLQMNSLKPEDTAVYYCARDTSGIGTRYDYWGQGTQVTVSS,low polyreactivity
16,QVQLVESGGGLVQAGGSLRLSCAASGSIFEWYAMGWYRQAPGKERELVADISSLGSTYYADSVKGRFTISRDNAKNTVYLQMNSLKPEDTAVYYCNTSYIIWYDSWGQGTQVTVSS,low polyreactivity
17,QVQLVESGGGLVQAGGSLRLSCAASGSIFEYNAMGWYRPAPGKERELVAAISWSSGTTYYADSVKGRFTISLDNAKNSVYLQMNSLKPEDTAVYYCNAGRYGKDSDYWGQGTQVTVSS,low polyreactivity
18,QVQLVESGGGLVQAGGSLRLSCAASGSIFEYTGMGWYRQAPGKERELVAAITTTGTTDYADSVKGRFTISRDNAKNTVYLQMNSLKPEDTAVYYCAADYTYYYKVEYDYWGQGTQVTVSS,low polyreactivity
19,QVQLVESGGGLVQAGGSLRLSCAASGSIFFAYDMGWYRQAPGKERELVAAISNIDGSTYYADSVKGRFTISRDNAKNTVYLQMNSVKPEDTAVYYCATRVYYLYDYWGQGTQVTVSS,low polyreactivity
20,QVQLVESGGGLVQAGGSLRLSCAASGSIFFDNAMGWYRQAPGKERELVAAIDSSGGSTYYADSVKGRFTISRDNAKNTVYLQMNSLKPEDTAVYYCAREQYVPSPYSFFDEFEYWGQGTQVTVSS,low polyreactivity

row,Sequence,polyreactivity (PSR sort gate)
1,QVQLVESGGGLVQAGGSLRLSCAASGSIFFDNAMGWYRQAPGKERELVATINSGGNTHYADSVKGRFTISRDNAKNTVYLQMNSLKPEDTAVYSCAADFRSDLVDGYNYWGQGTQVTVSS,low polyreactivity
2,QVQLVESGGGLVQAGGSLRLSCAASGSIFFDNAMGWYRQAPGKERELVATINSGGNTHYADSVKGRFTISRDNAKNTVYLQMNSLKPEDTAVYYCAADFPSDLVDGYNYWGQGTQVTVSS,low polyreactivity
3,QVQLVESGGGLVQAGGSLRLSCAASGSIFFDYALGWYRQAPGKERELVARITSSDSTNYADSVKGRFTISRDNAKNTVYLQMNSLKPEDTAVYYCNKDSTGDGYDYWGQGTQVTVSS,low polyreactivity
4,QVQLVESGGGLVQAGGSLRLSCAASGSIFFFNAMGWYRQAPGKERELVAAISESGTSTYYADSVKGRFTISRDNAKNTVYLQMNSLKPEDAAVYYCNVVFRYAYGVYYTPEFYYWGQGTQVTVSS,low polyreactivity
5,QVQLVESGGGLVQAGGSLRLSCAASGSIFFGNAMGLYRQAPGKERELVAAISTTGGSTYYADSVKGRFTISRDNAKNTVYLQMNSLKPEDTAVYYCNADRATWWEQWWYDYWGQGTQVTVSS,low polyreactivity
6,QVQLVESGGGLVQAGGSLRLSCAASGSIFFGYAMGWYRQAPGKEREFVAAITASGVRTYYADSVKGRFTISRDNAKNTVYLQMNSLKPEDTAVYYCAARIGTGVLPARGAKSHMDYWGQGTQVPVSS,low polyreactivity
7,QVQLVESGGGLVQAGGSLRLSCAASGSIFFLNAMGWYRQAPGKERELVAAITNVGSTYYADSVKGRFTISRDNAKNTVYLQMNSLKPEDTAVYYCNADPGEVLVGYDYWGQGTEVTVSS,low polyreactivity
8,QVQLVESGGGLVQAGGSLRLSCAASGSIFFLYAMGWYRQAPGKERELVAAISRDGRTNYADSVKGRFTISRDNAKNTVYLQMNSLKPEDTAVYYCAKDGNHPGAVGYGYWGQGTQVTVSS,low polyreactivity
9,QVQLVESGGGLVQAGGSLRLSCAASGSIFFLYAMGWYRQAPGKERELVAGINLSGGSTYYADSVKGRFTISRDNAKNTVYLQMNSLKPEDTAVYYCNAYLPSPYSSSYIFDYDSWGQGTQVTVSS,low polyreactivity
10,QVQLVESGGGLVQAGGSLRLSCAASGSIFFLYTMGWYRQARGKERELVAAITRNGGSTYYADSVKGRFTISRDNAKNTVYLQMNSLKPEDTAVYYCNALRWYSYNYWGQGTQVTVSS,high polyreactivity
11,QVQLVESGGGLVQAGGSLRLSCAASGSIFFNYAMGWYRQAPGKERELVAAISSNGGRTYYADSVKGRFTISRDNAKNTVYLQMNSLKPEDTAVYYCAARVYDYPRFGYWGQGTQVTVSS,high polyreactivity
12,QVQLVESGGGLVQAGGSLRLSCAASGSIFFPYAMGWYRQAPGKERELVAAITRSGGRTYYADSVKGRFTISRDNAKNTVYLQMNSLKPEDTAVYYCAAGPWYNFYDSRPWFSYDYWGQGTQVTVSS,low polyreactivity
13,QVQLVESGGGLVQAGGSLRLSCAASGSIFFPYAMGWYRQAPGKERELVAASTRSGGRTYYADSVKGRFTISRDNAKNTVYLQMNSLKPEDTAVYYCAAGPWYKFYDWRPWFSYDYWGQGTQVTVSS,low polyreactivity
14,QVQLVESGGGLVQAGGSLRLSCAASGSIFFRYAMGWYRPAPGKERELVAAISSSGGSTYYADSVKGRFTISRDNAKNTVYLQMNSLKPEDTAVYYCAARYYSKYYYSPFDYWGQGTQVTVSS,high polyreactivity
15,QVQLVESGGGLVQAGGSLRLSCAASGSIFFRYTMGWYRQAPGKERELVAAITGDGGSTYADSVKGRFTISRDNAKNTVYLQMNSLNPEDTAVYYCAALSTTGIWGTVSTYYYWGQGTQVTVSS,low polyreactivity
16,QVQLVESGGGLVQAGGSLRLSCAASGSIFFSNAMGRYRQAPGKERELVAGIRSGGITNYADSVKGRFTISRDNAKNTVYLQMNSLKPEDTAVYYCNADLAPSTPYFYYFPVRRDYWGQGTQVTVSS,low polyreactivity
17,QVQLVESGGGLVQAGGSLRLSCAASGSIFFSNTMGWYRQAPGKERELVARITWSGTSTNYADSVKGRFTISRDNAKNTVYLQMNSLKPEDTAVYYCNAGFYTSAGYDYWGQGTQVTVSS,high polyreactivity
18,QVQLVESGGGLVQAGGSLRLSCAASGSIFFSNVMGWSRPAPGKERELVAAITRGGGTNYADSVKGRFTISRDNAKNTVYLQMNSLKPEDTAVYYCNRDPQKYRWIPRYDYWGQGTQVTVSS,low polyreactivity
19,QVQLVESGGGLVQAGGSLRLSCAASGSIFFSYAMGWYRQAPGKERELVATITTSGGRTRYADSVKGRFTISRDNAKNTVYLQMNSLKPEETAVYYCAAAPWDAPWSGYEYWGQGTQVTVSS,high polyreactivity
20,QVQLVESGGGLVQAGGSLRLSCAASGSIFFVYAMGWYRQAPGKERELVAGISGRDGSTYYADSVKGRFTISRDNAKNTVYLQMNSLKPEDTAVYYSARVYWGQGTQVTVSS,low polyreactivity
